The series can be described thus: yeast display, Sf9 membrane polyspecificity reagent, FACS + sequencing; frameworks hold sequencing errors. Summed up:
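Genes from sorted yeast were amplified by colony PCR, read by MiSeq 2 × 250 sequencing and filtered on CDR length. These cells carried a synthetic nanobody library in Saccharomyces cerevisiae BJ5465 and were sorted by FACS into low and high (top ~1%) gates on anti-HA and streptavidin fluorescence. Polyreactivity is labelled according to the gate of origin.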
With “QVQLVESGGGLVHAGGSLRLSCAASGFTFTFYAMGWYRQAPGKERELVATISSNGGSTYYADSVKGRFTISRDNAKNTVYLQMNSLKPEDTAVYYCAAITSYYGYYYWGQGTQVTVSS”, the “polyreactivity (PSR sort gate)” value is “high polyreactivity”.

“QVQLVESGGGLVHAGGSLRLSCAASGGIFPHNVMGWYRQAPGKEREMVAAITWSGGRTYYADSVKGRFTNSRDNAKNTVYFQLNSLKPEDTAVYYCAADPFYLTKSGGWGDYWGQGTQVTVSS”: the “polyreactivity (PSR sort gate)” value is given as “low polyreactivity”.

“QVQLVESGGGLVHAGGSLRLSCAASGGTFVYNAMGWYRQAPGKERELVAVISKRGGSTYYADSVKGRFTISRDNAKNTVYLEMISLKPEDTAVYYCAVSYRSFRYYWERYYSWGQGTQVTVSS”: the “polyreactivity (PSR sort gate)” value is given as “high polyreactivity”.

Consider “QVQLVESGGGLVHAGGSLRLSCAASGGTLYRYAMGWYRQAPGKERELVAGISSSGGRTYYADSVKGRFTISRDNAKNTVYLQMNSLKPEDTAVYYCAKYWVSSYDYWGQGTQVTVSS”, for which the “polyreactivity (PSR sort gate)” value was “high polyreactivity”.

“QVQLVESGGGLVHAGGSLRLSCAASGIIFRSYAMGWYRQAPGKERELVAGISLSGGSTYYADSVKGLFTISRDNSKNTVYLQMKSLKPEDTAVYYCATRNHYFRALRYGYWGQGTQVTVSS”: the “polyreactivity (PSR sort gate)” value was “high polyreactivity”.

As for “QVQLVESGGGLVHAGGSLRLSCAASGIIFSWYAMGWYRQAPGKERELVAAITSDGNTYYADSVKGRFTISRDNAKNTVYLQMNSLKPEDTAVYYCIARTYVRRPLGYWGQGWQVTVSS”, the “polyreactivity (PSR sort gate)” value is given as “high polyreactivity”.

For the sequence “QVQLVESGGGLVHAGGSLRLSCAASGITFERYAMGWYRQAPGKERELVAAITSSGGSTYYADSVKGRFTISRDNAKNTVYLQMNSLKPEDTAVYYCAARTAYTPRHDYWGQGTEVTVSS”, the “polyreactivity (PSR sort gate)” value is recorded as “high polyreactivity”.

As to “QVQLVESGGGLVHAGGSLRLSCAASGITFYDYDMGWYRQAPGKERELVATITSGGDTNYADSVKGRITISRDNAKNTVYLQMNSLKPEDTAVYYCAAGSFFRDSYARIYRWFYYWGQGTQVTVSS”, the “polyreactivity (PSR sort gate)” value is reported as “low polyreactivity”.

With “QVQLVESGGGLVHAGGSLRLSCAASGRIFAPYAMGWYRQAPGKERELVAAITSRGGSTYYADSVKGRFTISRDTAKNTVYLQMNSLKPEDTAVYYCNADYYGRPYYYWGQGTQVTVSS”, the “polyreactivity (PSR sort gate)” value is “high polyreactivity”.

Turning to “QVQLVESGGGLVHAGGSLRLSCAASGRIFIANTMGWYRQATGKERELVAAITQRGDSTYYADSVKGRCTISRDNAKNTVDLQMNSLKPEDTAVYYCAARYYLSSYVRYNYWGQGTQVTVSS”, the “polyreactivity (PSR sort gate)” value was “high polyreactivity”.

Turning to “QVQLVESGGGLVHAGGSLRLSCAASGRIFQHYAMGWYRKAPGKERELVAAISWRGGSTYYADSVKGRFTISRDNAKNTVYLQMNSLIPEDTAVYYCAAGYPGRNPGFDYWGQGNQVTVSS”, the “polyreactivity (PSR sort gate)” value was “high polyreactivity”.

As to “QVQLVESGGGLVHAGGSLRLSCAASGRIFSPYARGWYRQAPGKERELDAAMSGSRGRTYYADSVKGRFTISRDNAKNTEYLLMNRLKPEDTADYYCAAYRAITRANYLDYWGQGTQVTVSS”, the “polyreactivity (PSR sort gate)” value is on record as “high polyreactivity”.

As for “QVQLVESGGGLVHAGGSLRLSCAASGRITTYYTMGRYRHAPGKERELVAAISWSGTSTYYADSVKGRFTISRDNAKNTVYLQMNSLKPEATAVYYCNAGWRYPLDSVTDDYWGQGTQVTVSS”, the “polyreactivity (PSR sort gate)” value is recorded as “high polyreactivity”.

In the case of “QVQLVESGGGLVHAGGSLRLSCAASGRTFAGNVMGWYIQAPGKEREFVAAISLSGGNTYYADSVKGRFTISRDNAKNTVYLQMNSLKPEDTAVYYCAADYEYSGYGYWGQGTQVTVSS”, the “polyreactivity (PSR sort gate)” value is “high polyreactivity”.

Turning to “QVQLVESGGGLVHAGGSLRLSCAASGRTFHGYAMGWYIQAPGKERELVAAITSSGARTYYADSVKGRFTISRDNAKNTVYLQMNSLKPEDTAVYYCAVNWLRGMDWGQGTQVTVSS”, the “polyreactivity (PSR sort gate)” value was “high polyreactivity”.

“QVQLVESGGGLVHAGGSLRLSCAASGRTFLLYAMGWYRQAPGKERELVARITGRGGRTYYADSVKGRFTISRDNAKNTVYLQMNSLKPEDTAVYYCNAKGYQGQWERYDYWGQGTQVTVSS”: the “polyreactivity (PSR sort gate)” value is “high polyreactivity”.

“QVQLVESGGGLVHAGGSLRLSCAASGRTFQWNRMVWYRQAPGKERELVATIRRGGSTNYADSVKGRFTISRDNAKNTVYLQMNSLKPEDTAVYYCAADRRYPGGWGFEYNYWGQGTQVTVSS”: the “polyreactivity (PSR sort gate)” value is reported as “low polyreactivity”.

In the case of “QVQLVESGGGLVHAGGSLRLSCAASGRTFWSYSMGWYRQAPGKEREFVAAISRRGGITYYADSVKGRFTISRDNAKTTVYLQMNSLKPEDTAVFYCAKGALSYYGGQVKYDYWGQGTQVTVSS”, the “polyreactivity (PSR sort gate)” value is on record as “high polyreactivity”.

“QVQLVESGGGLVHAGGSLRLSCAASGRTFWYYAMGWYRQAPGKERELVAAITRGGRTNYADSVKGRFTISRDNAKNTVYLQMNSLKPEDTAVYYCAADYRYPAHSYGYWGQGTQVTVSS”: the “polyreactivity (PSR sort gate)” value is reported as “high polyreactivity”.

With “QVQLVESGGGLVHAGGSLRLSCAASGRTFYAYAMGWYRQAPGKERELVAAISWRGGDTYYADSVKGRFTISRDNAKNTVYLQMNSVKPEVTAVYFCCADVYRYSVYLIRNPMDYWGQGTQVTVSS”, the “polyreactivity (PSR sort gate)” value is given as “low polyreactivity”.

Turning to “QVQLVESGGGLVHAGGSLRLSCAASGSIFDYYALGWYRQAPGKERDLVASINSSVTGTYYADTVKGRFTISRDNAKNSVYLQMNSLKPEDTAVYYCAVKVYGRSGGYEYWGQGTQVTVSS”, the “polyreactivity (PSR sort gate)” value is reported as “low polyreactivity”.

Turning to “QVQLVESGGGLVHAGGSLRLSCAASGSIFVVYTMGWYRQAPGQERELVAAITQNGGSSTYYADSVKGRFTISRDNAKNTVYLQMNSLKPEDTAVYYCNKDILSPVVRIFKYGYDMDYWGQGTQVTVSS”, the “polyreactivity (PSR sort gate)” value was “low polyreactivity”.

On to “QVQLVESGGGLVHAGGSLRLSCAASGSIFYHNPMGWYRQAPGKERELVAAISGRGGSTYYADSVKGRFTISRDNAKHTVYLQMNSLKPEDSAVYYCAADARYQNGGLYYWGQGTHVTVSS”, for which the “polyreactivity (PSR sort gate)” value is “high polyreactivity”.

As for “QVQLVESGGGLVHAGGSLRLSCAASGSIIDRNAMGWYRQAPGKERELVASITRGGSTNYADSVKGRFTISRDNEKNTVYLQMNSLKPEDTAVYYCADDRVYLGMFRYEYWGQGTQVTVSS”, the “polyreactivity (PSR sort gate)” value is given as “high polyreactivity”.

Take “QVQLVESGGGLVHAGGSLRLSCAASGSIYGANDMGWYRKATGKERELVAAITRSGTRTYYADSVKGLFTISRDNAKNTVYLQMNSLKPEDTAVYYCAAVLRLSTLTTDFGYWGQGTQVTVSS”: the “polyreactivity (PSR sort gate)” value was “high polyreactivity”.

As for “QVQLVESGGGLVHAGGSLRLSCAASGSNFGYNAMGWYIQAPGKERELVAAITSIGGNTYADSVKGRFTISRDNAKYTVYLQMNSLKPEDTAVYYCAAERNTDPIQVVYEFDYWGQGSQVTVSS”, the “polyreactivity (PSR sort gate)” value is on record as “low polyreactivity”.

Regarding “QVQLVESGGGLVHAGGSLRLSCAASGSNFRYNAMGWYRQAPGKEREFYADSVKGRFTISRDNAKKTVYLQMNSLKPEDTAVYYCNATWYLWYWHDMDYWGQGTQGTVSS”, the “polyreactivity (PSR sort gate)” value is “low polyreactivity”.

Take “QVQLVESGGGLVHAGGSLRLSCAASGSNSNYYGMGWYRQAPGKERELVAAITWGGGRTNYADSVKGRFTISRDNAKNTVYLQMNSLKPEDTAVYYCAKVSVTHRYGAGGDYWGQGTQVTVSS”: the “polyreactivity (PSR sort gate)” value is “low polyreactivity”.

As for “QVQLVESGGGLVHAGGSLRLSCAASGSTFGYYAMGWYRQAPGTERELVADINWNGGSTNYADSVKGRFTISRDTEKKTVYLQMNSLKPEDTAVYFCAKGLRPYRFYYWGQGTQVTVSS”, the “polyreactivity (PSR sort gate)” value was “high polyreactivity”.

Turning to “QVQLVESGGGLVHAGGSLRLSCAASGSTFIYNAMGWDRQAPGKERELVAAITWNGGSTYYADSVKGRFTLSRDIAKNTVYLQMISLNPEDTAVYYCAVDKGSQPHYDYWGQVTQVTVSS”, the “polyreactivity (PSR sort gate)” value is given as “low polyreactivity”.

Take “QVQLVESGGGLVHAGGSLRLSCAASGSTFSRNTMGWYRQAPGKERELVAAITKSAVSTYNADSVKGRFTISRDNAKNTVYLQMNSLKPEDTAVYYCAKVYRTSTSKAYDYWGQGTQVTVSS”: the “polyreactivity (PSR sort gate)” value was “high polyreactivity”.

Regarding “QVQLVESGGGLVHAGGSLRLSCAASGSTFSYNAMGWYRQAHGKERELVAAITSSGSSTYYADSVKGRFTISRYNAKNTVYLQMNSLKPEDTAVYYCKAEVLFVAGQVQRNSGDYWGQGTQVSVSS”, the “polyreactivity (PSR sort gate)” value is reported as “low polyreactivity”.

Take “QVQLVESGGGLVHAGGSLRLSCAASGSTFTPNAMGWYRQAPRKERDLVAAIRGLNGRTYYADSVKGRITISRDNAKNTVYLQMNSLKPEDTAVYYCAAGGYSNYFAWHDYWGQCTQVTVSS”: the “polyreactivity (PSR sort gate)” value is given as “low polyreactivity”.

As to “QVQLVESGGGLVHAGGSLRLSCAASGSTFYENAMGWYRQAPGKERELVAAITWSGGRTYYADSVKGRFTISRDNAKNTVYLQMNSLKPEDTAVYYCAAGLFVGFDYWGQGTQVTVSS”, the “polyreactivity (PSR sort gate)” value is “high polyreactivity”.

For “QVQLVESGGGLVHAGGSLRLSCAASGSTFYSNTMGWYRQAPGKERELVAAIDTSGDSTNYADSVKGRFTISRDNAKNTVYLQMNSLKPEDTAVYYCNRRVSDRAFPFNYWGQGTQVTVSS”, the “polyreactivity (PSR sort gate)” value was “low polyreactivity”.

“QVQLVESGGGLVHAGGSLRLSCAASGSTLKYYAMGWYRQAPGKERELVAAITSGSSTYYADSVKGRFTISRDNAKNTVYLQMNSLKPEDTAVYYCAADYYTGYGRYYSTRFYYWGQGTQVTVSS”: the “polyreactivity (PSR sort gate)” value is listed as “high polyreactivity”.

“QVQLVESGGGLVHAGGSLRLSCAASGSTYIFYAMGWYRQAPGKERELVPAITGGGSTYYADSVKGRFTISRDNAKNTVYLQMNSLKPEDTAVFYCARAEPYYSKSFSLGGYGYWGQGTKVTVSS”: the “polyreactivity (PSR sort gate)” value was “low polyreactivity”.

In the case of “QVQLVESGGGLVHAGGSLRLSCAAYGFIFRYYAMGRYRQAPGKEMELVATISSGGRTYYADSVKGRFTISRDNAKNTVYLQMNSLKPEDTAVYYCAKDYSWASYNHDYWGQGTQVTVSS”, the “polyreactivity (PSR sort gate)” value was “low polyreactivity”.

Regarding “QVQLVESGGGLVHAGGSLRLSCAAYGSTFVRNAMGCYRQAPGKERELVAAITSRGGSTYYADSVKGRFTISRDNAKNTVYLQMNSLKPEDTAVYYCAARFGVKRGQYDYWGQGTQVTVSS”, the “polyreactivity (PSR sort gate)” value is given as “high polyreactivity”.

As for “QVQLVESGGGLVHAGGSLRLSCASSGRIFQYNTMGWYRQAPGKERELVAGISSGGSTNYADSVKGRFTISRDNAKNTVYLQMNSLKPEDTAVYYCAARAKRYNVRFDYWGQGTQVTVSS”, the “polyreactivity (PSR sort gate)” value is reported as “high polyreactivity”.

As to “QVQLVESGGGLVHAGGSLRLSCASSGSTFRPYAMGCYRQAPGKERELVAAIRKIGGRTYYADSVKGRFTISRDNANNTVYLQMNSLKPEDTAVYNCNKRIGGGVHAYNYWGQGTQVSVSS”, the “polyreactivity (PSR sort gate)” value is “low polyreactivity”.

(Values after the nanobody polyreactivity screen of Harvey et al. (2022).)
